Results as given in publication PMC4073494 (Nature communications, 2014).

Molecular target: purified full-length EED (AlphaScreen) (UniProt O75530 1-441)
Test: AlphaScreen or HTRF

Sequence of purified full-length EED (AlphaScreen) (O75530 whole entry): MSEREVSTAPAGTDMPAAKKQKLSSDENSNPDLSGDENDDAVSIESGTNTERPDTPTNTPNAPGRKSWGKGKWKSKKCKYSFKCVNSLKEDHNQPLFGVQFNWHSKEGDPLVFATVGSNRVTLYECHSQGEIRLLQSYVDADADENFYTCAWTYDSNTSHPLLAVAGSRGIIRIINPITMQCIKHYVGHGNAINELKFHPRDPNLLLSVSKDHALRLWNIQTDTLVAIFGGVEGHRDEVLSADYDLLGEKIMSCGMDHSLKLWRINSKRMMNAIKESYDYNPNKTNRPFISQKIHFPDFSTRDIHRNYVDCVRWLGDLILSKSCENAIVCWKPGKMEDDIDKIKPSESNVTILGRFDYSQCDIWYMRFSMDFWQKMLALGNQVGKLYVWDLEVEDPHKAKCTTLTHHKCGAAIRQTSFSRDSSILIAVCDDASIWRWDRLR

- EC50: 148 nM
B1: unlabeled full-length EZH2 (AlphaScreen) (natural protein)
chain: not shown
